Test results taken from the supplement of paper PMC10065799, “High-throughput profiling of sequence recognition by tyrosine kinases and SH2 domains using bacterial peptide display” (eLife, 2023).

Tests used:
c-Src = assay: phosphorylation enrichment, bacterial display (enrichment ratio); higher = better substrate or ligand; peptides without Tyr show the background
Hck = Hck (UniProt P08631); assay: as above
Fer (mouse) = assay: as above
FGFR1 = FGFR1 (UniProt P11362); assay: as above
MERTK = MERTK (UniProt Q12866); assay: as above
Sequence of MERTK (Q12866 whole entry, looked up): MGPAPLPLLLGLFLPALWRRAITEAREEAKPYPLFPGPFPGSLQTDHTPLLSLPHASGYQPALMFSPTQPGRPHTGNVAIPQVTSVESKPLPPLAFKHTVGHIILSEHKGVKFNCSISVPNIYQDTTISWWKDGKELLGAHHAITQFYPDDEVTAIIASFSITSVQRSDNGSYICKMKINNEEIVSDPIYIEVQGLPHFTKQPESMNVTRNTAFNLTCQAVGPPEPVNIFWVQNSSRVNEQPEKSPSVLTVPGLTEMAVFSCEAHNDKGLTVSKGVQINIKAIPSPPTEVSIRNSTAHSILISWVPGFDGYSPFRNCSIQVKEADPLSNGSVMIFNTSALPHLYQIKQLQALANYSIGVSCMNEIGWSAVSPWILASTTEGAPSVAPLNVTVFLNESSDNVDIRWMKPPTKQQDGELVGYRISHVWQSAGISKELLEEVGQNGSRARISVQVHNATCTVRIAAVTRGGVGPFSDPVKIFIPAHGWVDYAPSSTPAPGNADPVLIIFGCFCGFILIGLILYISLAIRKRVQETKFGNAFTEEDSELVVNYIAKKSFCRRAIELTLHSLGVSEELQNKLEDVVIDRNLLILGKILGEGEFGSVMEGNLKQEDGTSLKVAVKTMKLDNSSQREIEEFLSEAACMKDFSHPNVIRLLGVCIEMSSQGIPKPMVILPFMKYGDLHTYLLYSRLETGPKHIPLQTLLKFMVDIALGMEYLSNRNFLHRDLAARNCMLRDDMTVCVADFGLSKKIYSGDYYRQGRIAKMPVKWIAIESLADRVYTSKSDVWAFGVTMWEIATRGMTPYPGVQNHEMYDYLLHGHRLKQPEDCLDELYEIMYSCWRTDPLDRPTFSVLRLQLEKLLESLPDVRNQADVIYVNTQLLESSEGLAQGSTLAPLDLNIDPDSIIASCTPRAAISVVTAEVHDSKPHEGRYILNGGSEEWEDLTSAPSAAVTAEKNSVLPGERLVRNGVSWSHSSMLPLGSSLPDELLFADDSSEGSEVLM

Jak2 = Jak2 (UniProt O60674); assay: as above
AncSZ = assay: as above
Fyn = Fyn (UniProt P06241); assay: as above
Sequence of Fyn (P06241 whole entry, looked up): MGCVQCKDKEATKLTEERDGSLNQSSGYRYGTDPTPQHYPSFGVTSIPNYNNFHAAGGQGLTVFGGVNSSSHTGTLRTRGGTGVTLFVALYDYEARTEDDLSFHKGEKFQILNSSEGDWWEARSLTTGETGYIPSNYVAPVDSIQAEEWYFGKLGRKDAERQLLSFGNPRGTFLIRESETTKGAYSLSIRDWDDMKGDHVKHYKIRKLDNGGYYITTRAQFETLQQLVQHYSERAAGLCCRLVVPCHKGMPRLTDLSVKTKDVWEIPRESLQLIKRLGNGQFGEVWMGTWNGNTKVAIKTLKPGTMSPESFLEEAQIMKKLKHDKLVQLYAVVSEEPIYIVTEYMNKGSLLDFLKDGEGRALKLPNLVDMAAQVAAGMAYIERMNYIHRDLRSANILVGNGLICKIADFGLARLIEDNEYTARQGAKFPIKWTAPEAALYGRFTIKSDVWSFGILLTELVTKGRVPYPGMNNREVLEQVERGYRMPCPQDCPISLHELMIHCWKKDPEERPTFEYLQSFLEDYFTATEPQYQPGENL

EPHB2 = EPHB2 (UniProt P29323); assay: as above
FGFR3 = FGFR3 (UniProt P22607); assay: as above
Sequence of FGFR3 (P22607 whole entry, looked up): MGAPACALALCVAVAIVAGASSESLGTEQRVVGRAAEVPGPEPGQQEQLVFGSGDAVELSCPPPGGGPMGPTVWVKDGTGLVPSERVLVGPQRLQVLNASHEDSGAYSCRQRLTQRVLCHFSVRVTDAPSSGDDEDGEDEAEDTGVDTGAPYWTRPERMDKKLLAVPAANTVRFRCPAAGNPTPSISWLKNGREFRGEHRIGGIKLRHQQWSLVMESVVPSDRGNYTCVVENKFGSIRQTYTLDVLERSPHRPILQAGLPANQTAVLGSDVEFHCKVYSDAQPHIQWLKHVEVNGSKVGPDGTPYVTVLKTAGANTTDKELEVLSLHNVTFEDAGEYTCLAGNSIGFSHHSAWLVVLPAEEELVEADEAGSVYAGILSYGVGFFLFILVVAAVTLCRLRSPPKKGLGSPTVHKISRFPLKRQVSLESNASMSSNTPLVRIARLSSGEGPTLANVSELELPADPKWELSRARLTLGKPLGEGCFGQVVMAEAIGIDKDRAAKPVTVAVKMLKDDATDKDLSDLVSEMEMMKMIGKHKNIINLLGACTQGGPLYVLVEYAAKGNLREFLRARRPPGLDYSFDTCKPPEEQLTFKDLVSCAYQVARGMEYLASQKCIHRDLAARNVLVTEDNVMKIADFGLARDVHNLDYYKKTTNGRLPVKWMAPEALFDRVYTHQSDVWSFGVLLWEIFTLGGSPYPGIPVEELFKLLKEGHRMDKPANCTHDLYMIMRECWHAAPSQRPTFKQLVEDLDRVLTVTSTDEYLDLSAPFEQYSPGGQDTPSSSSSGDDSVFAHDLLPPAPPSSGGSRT

Fes = Fes (UniProt P07332); assay: as above
c-Abl (mouse) = assay: as above
EPHB1 = EPHB1 (UniProt P54762); assay: as above
Sequence of EPHB1 (P54762 whole entry, looked up): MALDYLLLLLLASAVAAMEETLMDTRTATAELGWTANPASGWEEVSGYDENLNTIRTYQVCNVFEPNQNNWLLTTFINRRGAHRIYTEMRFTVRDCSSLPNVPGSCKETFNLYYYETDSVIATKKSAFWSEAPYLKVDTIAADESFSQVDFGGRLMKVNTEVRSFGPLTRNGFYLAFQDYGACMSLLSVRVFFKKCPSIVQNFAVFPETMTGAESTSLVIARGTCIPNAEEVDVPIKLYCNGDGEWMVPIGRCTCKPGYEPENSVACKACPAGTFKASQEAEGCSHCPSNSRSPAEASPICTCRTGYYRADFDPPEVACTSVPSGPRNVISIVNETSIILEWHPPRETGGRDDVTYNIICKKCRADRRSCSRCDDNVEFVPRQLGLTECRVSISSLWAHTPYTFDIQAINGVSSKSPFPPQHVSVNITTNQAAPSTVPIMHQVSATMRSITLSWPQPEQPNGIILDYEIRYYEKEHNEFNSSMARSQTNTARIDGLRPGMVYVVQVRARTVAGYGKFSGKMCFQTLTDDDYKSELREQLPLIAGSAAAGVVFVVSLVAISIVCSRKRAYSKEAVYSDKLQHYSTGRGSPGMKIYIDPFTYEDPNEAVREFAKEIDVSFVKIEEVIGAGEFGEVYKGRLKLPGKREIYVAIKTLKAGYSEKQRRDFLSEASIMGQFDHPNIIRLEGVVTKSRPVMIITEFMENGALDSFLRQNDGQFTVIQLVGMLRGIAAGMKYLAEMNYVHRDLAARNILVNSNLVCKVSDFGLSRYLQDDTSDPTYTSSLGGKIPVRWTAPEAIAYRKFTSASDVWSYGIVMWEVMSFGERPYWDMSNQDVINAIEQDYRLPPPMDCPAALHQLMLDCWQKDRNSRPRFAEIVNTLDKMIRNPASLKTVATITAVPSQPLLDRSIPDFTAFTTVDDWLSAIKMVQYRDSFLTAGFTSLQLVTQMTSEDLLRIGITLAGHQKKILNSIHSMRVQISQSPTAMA

c-Src SH2 = assay: SH2 binding enrichment of the phosphorylated peptide, bacterial display (enrichment ratio); higher = better substrate or ligand; peptides without Tyr show the background
Grb2 SH2 = Grb2 SH2 (UniProt P62993); assay: as above
Sequence of Grb2 SH2 (P62993 whole entry, looked up): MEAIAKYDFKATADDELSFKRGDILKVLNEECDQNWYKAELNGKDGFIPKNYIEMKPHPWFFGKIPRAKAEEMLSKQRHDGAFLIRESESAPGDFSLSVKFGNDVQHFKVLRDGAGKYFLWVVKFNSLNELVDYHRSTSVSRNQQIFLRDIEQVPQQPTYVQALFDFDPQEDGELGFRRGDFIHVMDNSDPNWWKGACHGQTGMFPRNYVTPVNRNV

SHP2-C SH2 = assay: as above
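Wherever SH2 binding enrichment of the phosphorylated peptide, bacterial display is given: peptide library displayed on the E. coli surface as eCPX fusions, selected cells deep-sequenced, score is each peptide's frequency after selection divided by its frequency in the input.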
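Wherever phosphorylation enrichment, bacterial display is given: 11-residue human phosphosite peptides and single-mutation variants displayed on the E. coli surface, counted by deep sequencing, each peptide's frequency after selection divided by its frequency in the unselected input library; frequency after pTyr selection over input frequency; kinase dosed for 20-30% of maximal phosphorylation in three min.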

Sequence of Hck (P08631 whole entry, looked up): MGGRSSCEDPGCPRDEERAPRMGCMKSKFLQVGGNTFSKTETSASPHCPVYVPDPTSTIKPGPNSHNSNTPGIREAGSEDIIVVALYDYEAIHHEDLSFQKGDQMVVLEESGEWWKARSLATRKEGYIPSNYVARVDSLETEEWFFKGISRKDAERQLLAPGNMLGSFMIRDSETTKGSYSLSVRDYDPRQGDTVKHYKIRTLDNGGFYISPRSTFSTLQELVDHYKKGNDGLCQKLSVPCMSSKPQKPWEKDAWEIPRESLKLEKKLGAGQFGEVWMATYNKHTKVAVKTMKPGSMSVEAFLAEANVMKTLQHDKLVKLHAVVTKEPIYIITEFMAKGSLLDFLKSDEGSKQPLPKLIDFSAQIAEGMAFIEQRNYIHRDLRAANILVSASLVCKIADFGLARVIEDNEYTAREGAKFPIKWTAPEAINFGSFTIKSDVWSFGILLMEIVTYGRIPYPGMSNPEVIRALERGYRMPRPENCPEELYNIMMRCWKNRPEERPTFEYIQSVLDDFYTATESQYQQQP
Sequence of FGFR1 (P11362 whole entry, looked up): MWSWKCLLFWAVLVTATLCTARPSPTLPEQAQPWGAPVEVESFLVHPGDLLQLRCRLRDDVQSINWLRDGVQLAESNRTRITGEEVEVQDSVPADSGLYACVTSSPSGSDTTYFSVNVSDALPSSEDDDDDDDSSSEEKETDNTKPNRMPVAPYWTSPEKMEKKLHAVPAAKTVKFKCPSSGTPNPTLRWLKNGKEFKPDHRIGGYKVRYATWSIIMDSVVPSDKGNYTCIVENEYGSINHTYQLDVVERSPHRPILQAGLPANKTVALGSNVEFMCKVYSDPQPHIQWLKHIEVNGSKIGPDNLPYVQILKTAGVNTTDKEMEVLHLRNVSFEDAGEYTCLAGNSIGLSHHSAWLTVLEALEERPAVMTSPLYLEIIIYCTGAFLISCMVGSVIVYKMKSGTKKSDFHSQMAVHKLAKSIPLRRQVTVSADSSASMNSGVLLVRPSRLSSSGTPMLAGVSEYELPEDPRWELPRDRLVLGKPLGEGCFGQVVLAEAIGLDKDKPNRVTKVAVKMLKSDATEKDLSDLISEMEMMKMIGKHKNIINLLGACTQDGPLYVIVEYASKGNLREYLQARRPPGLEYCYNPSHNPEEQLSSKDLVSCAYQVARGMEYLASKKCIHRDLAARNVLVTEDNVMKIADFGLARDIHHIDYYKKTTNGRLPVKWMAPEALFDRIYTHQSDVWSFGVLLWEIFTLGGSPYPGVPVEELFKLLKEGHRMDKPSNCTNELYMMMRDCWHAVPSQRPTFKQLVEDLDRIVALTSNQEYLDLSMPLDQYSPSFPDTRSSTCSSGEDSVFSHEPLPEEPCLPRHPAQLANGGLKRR

Sequence	phosphorylation enrichment (c-Src)	phosphorylation enrichment (Hck)	phosphorylation enrichment (Fer (mouse))	phosphorylation enrichment (FGFR1)	phosphorylation enrichment (MERTK)	phosphorylation enrichment (Jak2)	phosphorylation enrichment (AncSZ)	phosphorylation enrichment (Fyn)	phosphorylation enrichment (EPHB2)	phosphorylation enrichment (FGFR3)	phosphorylation enrichment (Fes)	phosphorylation enrichment (c-Abl (mouse))	phosphorylation enrichment (EPHB1)	SH2 binding enrichment (c-Src SH2)	SH2 binding enrichment (Grb2 SH2)	SH2 binding enrichment (SHP2-C SH2)
AFLGEYIPTVF [RAC2_Y32_P29L]	0.664	0.516	0.568	0.826	0.638	1.49	1.31	0.593	0.499	0.967	1.43	1.1	0.733	0.658	0.922	1.01
AGGTRYRFVSQ [UCN3_Y95_R91G_YF]	0.393	0.338	0.386	0.461	0.363	0.465	0.426	0.536	0.272	0.377	0.43	0.576	0.397	0.489	0.849	0.641
AGLEEYSAMRD [HRAS_Y64_Q61L]	0.484	0.523	0.495	0.52	0.429	0.837	0.952	0.45	0.585	0.666	0.997	0.636	0.568	0.572	0.821	0.693
AGVDRYSLGTS [C5orf42_Y1451_P1446A]	0.391	0.455	0.398	0.398	0.394	0.498	0.59	0.361	0.366	0.51	0.599	0.388	0.463	0.45	0.79	0.615
AHLLQYNHRVK [LGALS3_Y221]	0.459	0.366	0.371	0.397	0.42	0.562	0.592	0.288	0.493	0.442	0.604	0.668	0.461	0.874	1.03	1.13
AIGFEYSEINI [SIGLEC12_Y588_YF]	1.46	1.14	3.84	2.77	0.574	1.22	1.14	0.642	0.5	1.69	1.04	0.689	0.481	0.923	0.632	0.86
AKGMKYLASKK [MET_Y1194]	0.406	0.394	0.379	0.341	0.335	0.489	0.482	0.354	0.324	0.311	0.536	0.445	0.244	0.553	0.975	0.557
AKGMKYVASKK [MET_Y1194_L1195V]	0.381	0.425	0.322	0.415	0.349	0.5	0.451	0.339	0.276	0.356	0.548	0.451	0.301	0.78	0.969	0.763
AKIDGYITSYR	0.417	0.407	0.338	0.469	0.415	0.558	0.809	0.433	0.51	0.556	0.763	0.565	0.52	0.501	0.815	0.739
AKLDIYKRKVE [VWA3B_Y918_N916D]	0.37	0.414	0.317	0.298	0.291	0.475	0.589	0.485	0.283	0.382	0.707	0.411	0.295	0.45	0.871	0.732
AKLNIYKRKVE [VWA3B_Y918]	0.4	0.307	0.34	0.331	0.448	0.603	0.486	0.53	0.305	0.422	0.504	0.91	0.309	0.517	0.854	0.664
ALAAPYVLYPS [CEFIP_Y1332_G1337S]	6.33	0.628	0.581	2.02	0.721	0.856	0.786	0.697	0.473	1.28	0.811	0.583	0.652	0.762	1.03	0.804
ALAHKYQGGGG [HBB_Y146_H147Q]	0.491	0.375	0.283	0.476	0.588	0.527	0.824	0.451	0.436	0.476	0.58	0.565	0.204	0.415	0.691	0.546
APQYTYTQGGQ [FLNA_Y1763_A1764T]														1.84	1.54	0.799
LPEVSYVKAID [GLRA1_Y307_K304E]	0.126	0.203			0.07	0.44	0.207	0.28		0.1	0.205	0.132	0.095	0.437	0.862	0.783
